Three molecules from patent US20140242080A1 (Hoffmann-La Roche, published 2014) can be followed below.

In experiment [1] the target is T1, human CD3 expressed on Jurkat cells (human, UniProt P07766 23-207).
T1 construct: CD3 complex on Jurkat T cells; also called CD3 on Jurkat cells; huCD3
In words: flow cytometry on Jurkat cells. On the technique in general: A flow cytometer gives signals particle by particle.

Experiment [2] deals with T2, human CEA expressed on tumor cells (LS-174T, A549-huCEA, MKN-45, MC38-huCEA, HPAFII, BxPC-3, ASPC-1) (human, UniProt P06731 35-685).
T2 construct: whole, on cells; also called Carcinoembryonic antigen; CEACAM5
T2 sequence (looked up): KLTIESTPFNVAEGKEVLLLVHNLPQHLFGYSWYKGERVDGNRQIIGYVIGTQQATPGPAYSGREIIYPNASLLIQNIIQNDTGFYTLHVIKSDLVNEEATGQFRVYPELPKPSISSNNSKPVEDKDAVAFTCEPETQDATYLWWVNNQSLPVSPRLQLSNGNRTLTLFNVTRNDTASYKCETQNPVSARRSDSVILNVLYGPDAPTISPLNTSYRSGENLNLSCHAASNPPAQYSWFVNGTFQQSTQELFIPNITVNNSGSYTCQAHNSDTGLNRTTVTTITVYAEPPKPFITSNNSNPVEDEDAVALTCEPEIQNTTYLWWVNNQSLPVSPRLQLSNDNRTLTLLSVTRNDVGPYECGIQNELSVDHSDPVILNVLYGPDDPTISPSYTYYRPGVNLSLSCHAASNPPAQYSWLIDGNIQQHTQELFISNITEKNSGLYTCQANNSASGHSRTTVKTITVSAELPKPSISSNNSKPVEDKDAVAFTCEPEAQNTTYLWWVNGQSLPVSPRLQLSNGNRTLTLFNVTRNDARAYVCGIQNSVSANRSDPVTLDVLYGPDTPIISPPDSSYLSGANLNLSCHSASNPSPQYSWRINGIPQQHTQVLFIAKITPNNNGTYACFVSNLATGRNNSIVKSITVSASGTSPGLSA
The experiment in a line: flow cytometry on LS-174T cells. The procedure:
Binding of the different bispecific constructs to CD3 on Jurkat cells (ATCC #TIB-152), and the respective tumor antigen on target cells, was determined by FACS. Briefly, cells were harvested, counted and checked for viability. 0.15-0.2 million cells per well (in PBS containing 0.1% BSA; 90 μl) were plated in a round-bottom 96-well plate and incubated with the indicated concentration of the bispecific constructs and corresponding IgG controls (10 μl) for 30 min at 4° C. […] After the incubation, cells were centrifuged (5 min, 350×g), washed with 150 μl PBS containing 0.1% BSA, resuspended and incubated for further 30 min at 4° C. with 12 μl/well of a FITC- or PE-conjugated secondary antibody. Bound constructs were detected using a FACSCantoII (Software FACS Diva). The “(scFv)₂” molecule was detected using a FITC-conjugated anti-His antibody (Lucerna, #RHIS-45F-Z). […] EC50 values were calculated using the GraphPad Prism software.
As a control, the equivalent maximum concentration of the corresponding IgGs and the background staining due to the labeled 2ndary antibody (goat anti-human FITC-conjugated AffiniPure F(ab′)2 Fragment, FcγFragment-specific, Jackson Immuno Research Lab #109-096-098) were assessed as well.

Experiment [3] has as its target T2, human CEA expressed on tumor cells …. The experiment in a line: cell-based or functional assay.
For experiment [4] the target is unchanged. In words: flow cytometry on A549-huCEA cells. The procedure: Briefly, cells were harvested, counted, checked for viability and resuspended at 2×10⁶ cells/ml in FACS buffer (100 μl PBS 0.1% BSA).
The target in experiment [5] is T3, human NABA-avi-his (human).
T3 construct: Chimeric antigen with a C-terminal avi 6his tag; also called recombinant tumor target antigen
T3 chain: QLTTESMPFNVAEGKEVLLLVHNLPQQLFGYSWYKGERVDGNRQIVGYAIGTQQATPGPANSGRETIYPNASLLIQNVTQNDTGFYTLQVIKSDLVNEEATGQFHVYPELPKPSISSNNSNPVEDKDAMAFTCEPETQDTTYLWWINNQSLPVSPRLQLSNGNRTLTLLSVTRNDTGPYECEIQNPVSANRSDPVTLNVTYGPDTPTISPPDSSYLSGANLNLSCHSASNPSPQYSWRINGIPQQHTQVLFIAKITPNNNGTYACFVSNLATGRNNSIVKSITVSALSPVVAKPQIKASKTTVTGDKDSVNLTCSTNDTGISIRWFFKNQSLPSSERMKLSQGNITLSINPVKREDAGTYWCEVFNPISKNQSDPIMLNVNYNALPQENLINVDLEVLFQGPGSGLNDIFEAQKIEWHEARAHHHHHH
In words: SPR Biacore T100, 25 C; t1/2 = ln 2/koff. As for the experimental part: (§1) Surface plasmon resonance (SPR) experiments were performed on a Biacore T100 at 25° C. with HBS-EP as running buffer (0.01 M HEPES pH 7.4, 0.15 M NaCl, 3 mM EDTA, 0.005% Surfactant P20, Biacore, Freiburg/Germany).
(§2) Kinetic constants were derived using the Biacore T200 Evaluation Software (vAA, Biacore AB, Uppsala/Sweden), to fit rate equations for 1:1 Langmuir binding by numerical integration. The half-life (t_{1/2}) of the interaction was calculated using following formula: t_{1/2}=ln 2/koff.
In general terms: Surface plasmon resonance follows binding to a sensor surface in real time, without labels.

The target in experiment [6] is T4, human CD3ε stalk-Fc (knob)-Avi/CD3δ-stalk-Fc(hole) (human).
T4 construct: also called Human CD3ε/CD3δ; recombinant CD3ε/CD3δ
In words: SPR Biacore T100, 25 C; t1/2 = ln 2/koff. The procedure:
as §1, §2

Experiment [7] concerns the target T2, human CEA expressed on tumor cells …. The experiment in a line: cell-based or functional assay. This is another data set of the same source.
The target in experiment [8] is T3, human NABA-avi-his. In words: SPR Biacore T100, 25 C; TCB captured via anti-human Fab, antigen as analyte.
Experiment [9] addresses T4, human CD3ε stalk-Fc …. Described as above.

For orientation: EC50 means the concentration that produces a half-maximal response. Low readings indicate an effect from little substance, high ones a need for much substance. Broadly, the Kd is the free concentration of one partner at which half of the binding sites on the other are occupied at equilibrium, for simple one-to-one binding. By koff is commonly meant the first-order rate constant of dissociation. Lower therefore signals slow dissociation. Usually kon stands for the rate constant with which the complex forms. A high value points to fast association.

T4 sequence (chain, as listed by the source mutant limits assumed, chain 1 of 2): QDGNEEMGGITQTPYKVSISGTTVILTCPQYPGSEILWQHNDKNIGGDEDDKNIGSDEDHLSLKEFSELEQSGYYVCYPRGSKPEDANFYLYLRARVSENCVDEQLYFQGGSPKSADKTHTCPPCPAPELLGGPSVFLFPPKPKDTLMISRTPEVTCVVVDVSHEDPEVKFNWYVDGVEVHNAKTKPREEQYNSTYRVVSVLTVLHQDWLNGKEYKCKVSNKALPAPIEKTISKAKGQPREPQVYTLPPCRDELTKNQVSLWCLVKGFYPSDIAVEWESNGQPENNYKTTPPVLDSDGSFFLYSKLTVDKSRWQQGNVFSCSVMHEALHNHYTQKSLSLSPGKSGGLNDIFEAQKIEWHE
T4 sequence (chain, as listed by the source mutant limits assumed, chain 2 of 2): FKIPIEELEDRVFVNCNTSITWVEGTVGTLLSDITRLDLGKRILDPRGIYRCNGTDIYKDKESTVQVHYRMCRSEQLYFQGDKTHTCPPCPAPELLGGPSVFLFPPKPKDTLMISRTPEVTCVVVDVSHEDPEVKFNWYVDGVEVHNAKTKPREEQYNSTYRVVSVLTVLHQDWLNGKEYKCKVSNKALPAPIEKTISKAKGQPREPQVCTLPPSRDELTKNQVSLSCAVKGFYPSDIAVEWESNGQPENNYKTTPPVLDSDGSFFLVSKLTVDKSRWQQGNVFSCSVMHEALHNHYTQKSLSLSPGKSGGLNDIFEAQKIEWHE
T1 sequence (P07766 23-207 limits assumed): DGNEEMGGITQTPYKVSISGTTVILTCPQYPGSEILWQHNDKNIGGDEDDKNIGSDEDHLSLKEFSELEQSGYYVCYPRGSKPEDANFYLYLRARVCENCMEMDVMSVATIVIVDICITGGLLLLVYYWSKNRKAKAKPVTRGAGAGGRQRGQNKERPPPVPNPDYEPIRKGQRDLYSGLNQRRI

B1: 2 + 1 IgG Crossfab, inverted; CL/CH1 exchange (CH1A1A/V9) (anti-CEA/anti-huCD3) (bispecific antibody)
chain 1: QVQLVQSGAEVKKPGASVKVSCKASGYTFTEFGMNWVRQAPGQGLEWMGWINTKTGEATYVEEFKGRVTFTTDTSTSTAYMELRSLRSDDTAVYYCARWDFAYYVEAMDYWGQGTTVTVSSASTKGPSVFPLAPSSKSTSGGTAALGCLVKDYFPEPVTVSWNSGALTSGVHTFPAVLQSSGLYSLSSVVTVPSSSLGTQTYICNVNHKPSNTKVDKKVEPKSCDKTHTCPPCPAPEAAGGPSVFLFPPKPKDTLMISRTPEVTCVVVDVSHEDPEVKFNWYVDGVEVHNAKTKPREEQYNSTYRVVSVLTVLHQDWLNGKEYKCKVSNKALGAPIEKTISKAKGQPREPQVCTLPPSRDELTKNQVSLSCAVKGFYPSDIAVEWESNGQPENNYKTTPPVLDSDGSFFLVSKLTVDKSRWQQGNVFSCSVMHEALHNHYTQKSLSLSPGK
chain 2: DIQMTQSPSSLSASVGDRVTITCKASAAVGTYVAWYQQKPGKAPKLLIYSASYRKRGVPSRFSGSGSGTDFTLTISSLQPEDFATYYCHQYYTYPLFTFGQGTKLEIKRTVAAPSVFIFPPSDEQLKSGTASVVCLLNNFYPREAKVQWKVDNALQSGNSQESVTEQDSKDSTYSLSSTLTLSKADYEKHKVYACEVTHQGLSSPVTKSFNRGEC
chain 3: DIQMTQSPSSLSASVGDRVTITCRASQDIRNYLNWYQQKPGKAPKLLIYYTSRLESGVPSRFSGSGSGTDYTLTISSLQPEDFATYYCQQGNTLPWTFGQGTKVEIKSSASTKGPSVFPLAPSSKSTSGGTAALGCLVKDYFPEPVTVSWNSGALTSGVHTFPAVLQSSGLYSLSSVVTVPSSSLGTQTYICNVNHKPSNTKVDKKVEPKSC
chain 4: not shown
notes: also called CL/CH1-exchange construct
Turning to B1, the EC50 in experiment [1] amounted to 3.9 nM. Further, the EC50 in experiment [2] was determined as 6.7 nM. Also, in experiment [3], the “EC50 of T cell-mediated killing (LDH release), LS-174T cells, human PBMCs E:T 10:1, 28 h” value was 0.673 nM and the “EC50 of T cell-mediated killing (LDH release), MKN-45 cells, human PBMCs E:T 10:1, 28 h” value is 0.115 nM.

B2: CEA TCB (2+1 Crossfab-IgG P329G LALA inverted) (bispecific antibody)
chain 1: B1 chain 2
chain 2: QAVVTQEPSLTVSPGGTVTLTCGSSTGAVTTSNYANWVQEKPGQAFRGLIGGTNKRAPGTPARFSGSLLGGKAALTLSGAQPEDEAEYYCALWYSNLWVFGGGTKLTVLSSASTKGPSVFPLAPSSKSTSGGTAALGCLVKDYFPEPVTVSWNSGALTSGVHTFPAVLQSSGLYSLSSVVTVPSSSLGTQTYICNVNHKPSNTKVDKKVEPKSC
chain 3: not shown
chain 4: B1 chain 1
notes: CH1A1A 98/99 2F1 as anti-CEA and humanized CH2527 as anti-CD3 antibody; also called CEA TCB antibody
For the molecule B2, a half-maximal effect in experiment [4] (EC50) was put at 6.6 nM. The t1/2 in experiment [5] came out at 5.3 min. This molecule also returned a t1/2 in experiment [6] of 5.7 min. Moreover, in experiment [7], the “EC50 [pM] 48 h of T-cell mediated killing (LDH release), ASPC1 cells, human PBMCs E:T 10:1” value was 846 pM; the “EC50 [pM] 48 h of T-cell mediated killing (LDH release), BxPC-3 cells, human PBMCs E:T 10:1” value came out at 3780 pM; the “EC50 [pM] 48 h of T-cell mediated killing (LDH release), HPAFII cells, human PBMCs E:T 10:1” value amounted to 667 pM. In [8], this molecule returned a Kd of 62.4 nM, a koff of 0.00218 s⁻¹ and a kon of 34900 M⁻¹ s⁻¹. In [9], this molecule came in with a Kd of 75.3 nM, a koff of 0.00203 s⁻¹ and a kon of 26900 M⁻¹ s⁻¹. Besides, in [3], the “EC50 of T cell-mediated killing (LDH release), A549-hCEA cells, cynomolgus PBMCs E:T 10:1, 40 h” value was determined as 0.102 nM and the “EC50 of T cell-mediated killing (LDH release), A549-hCEA cells, human PBMCs E:T 10:1, 40 h” value worked out at 0.306 nM.

B3: 2 + 1 IgG Crossfab, inverted; VL/VH exchange (CH1A1A/V9) (anti-CEA/anti-huCD3) (bispecific antibody)
chain 1: EVQLVESGGGLVQPGGSLRLSCAASGYSFTGYTMNWVRQAPGKGLEWVALINPYKGVSTYNQKFKDRFTISVDKSKNTAYLQMNSLRAEDTAVYYCARSGYYGDSDWYFDVWGQGTLVTVSSASVAAPSVFIFPPSDEQLKSGTASVVCLLNNFYPREAKVQWKVDNALQSGNSQESVTEQDSKDSTYSLSSTLTLSKADYEKHKVYACEVTHQGLSSPVTKSFNRGEC
chain 2: not shown
chain 3: B1 chain 1
chain 4: B1 chain 2
notes: also called VL/VH-exchange construct
B3: it took 4.6 nM to reach a half-maximal effect in [1] (EC50). The same molecule displayed a 50% effective concentration (EC50) in [2] of 9.3 nM. In addition, in [3], the “EC50 of T cell-mediated killing (LDH release), LS-174T cells, human PBMCs E:T 10:1, 28 h” value was determined as 0.955 nM and the “EC50 of T cell-mediated killing (LDH release), MKN-45 cells, human PBMCs E:T 10:1, 28 h” value was determined as 0.243 nM.
